Results: patent publication US20250290928A1, “METHOD, KIT AND DEVICE FOR DETECTING EXTRACELLULAR VESICLES” (priority 2022, published 2025)
*: point of attachment. 5FAM = O=C1OC2(c3ccc(O)cc3Oc3cc(O)ccc32)c2ccc(C(=O)*)cc21; TQ2 = quencher

Molecular target: T1, MMP14 in the MDA-MB-231-derived extracellular vesicles (Homo sapiens, UniProt P50281)
T1 construct: in terms of intact MMP14 with a molecular weight of 70 kDa
Assay: Digital detection of MDA-MB-231-derived extracellular vesicles through MMP14 activity in wells (microcompartments)
Type: biochemical
Description: The concentration of the solution is 6.7 μg/mL.
100 μL of the MMP14 detection solution was added to 100 μL of the sample to provide a reaction solution for wells. […] 100 μL of 200 μL of the prepared reaction solution for wells was used in the measurement of MMP14 activity with a 96-well plate.
Next, the wells were filled with the reaction solution by leaving the well array 200 to stand under reduced pressure to degas the space 205. After that, the space 205 was fed with hydrophobic solvents to be sealed. Fluorinated oils AsahiKlin AE-3000 (manufactured by AGC Inc.) and Fomblin Y-25 (manufactured by Solvay S.A.) were used as the hydrophobic solvents. A fluorinated oil Simoa (trademark) SR-X Sealing Oil: 102767 (manufactured by Quanterix Corporation) was further used as another hydrophobic solvent.
Well diameter: 4.25 μm Well depth: 3.25 μm Well capacity: 50 fL Number of wells in array: 239,000 Array range: 3 mm×4 mm
The concentration of the solution is 20 μg/mL. […] The concentration of the solution was set to x1, and 10-fold serial dilution was performed to prepare standard samples with five concentrations.
Next, the wells were filled with the reaction solution by leaving the well array 200 to stand under reduced pressure to degas the space 205. After that, the space 205 was fed with hydrophobic solvents to be sealed.
The concentration of the solution is 20 μg/mL. […] The concentration of the solution was set to x1, and 3-fold serial dilution was performed to prepare standard samples with three concentrations.
The concentration of the solution is 20 μg/mL. […] The concentration of the solution was set to x1, and 2-fold serial dilution was performed to prepare standard samples with four concentrations.
The concentration of the solution is 5 μg/mL.
50 μL of the MMP14 detection solution was added to 50 μL of the sample to provide a reaction solution for wells.
50 μL of each of the MMP14 detection solutions was added to 50 μL of the sample to provide a reaction solution for wells.
The concentration of the solution is 6.7 µg/mL.

[1] = Example 20, 37° C., 5 h, BG, EV 0 (free of extracellular vesicles, pseudopositive)
[2] = Example 20, 37° C., 5 h, ΔBG Absent, EV 0.0001 a.u.
[3] = Example 20, 37° C., 5 h, ΔBG Absent, EV 0.001 a.u.
[4] = Example 20, 37° C., 5 h, ΔBG Absent, EV 0.01 a.u.
[5] = Example 20, 37° C., 5 h, ΔBG Absent, EV 0.1 a.u.
[6] = Example 20, 37° C., 5 h, ΔBG Absent, EV 1 a.u. (x1=10 μg/mL)
[7] = Example 20, 37° C., 5 h, ΔBG Present (positives at EV 0 subtracted), EV 1 a.u.
[8] = Example 20, 37° C., 5 h, ΔBG Present, EV 0.001 a.u.
[9] = Example 20, 37° C., 5 h, ΔBG Present, EV 0.01 a.u.
[10] = Example 20, 37° C., 5 h, ΔBG Present, EV 0.1 a.u.
[11] = Example 22, buffer (2), 37° C., 1 h, EV 0 (free of extracellular vesicles)
[12] = Example 22, buffer (2), 37° C., 1 h, EV 0.111 a.u.
[13] = Example 22, buffer (2), 37° C., 1 h, EV 0.333 a.u.
[14] = Example 22, buffer (2), 37° C., 1 h, EV 1 a.u. (x1=10 μg/mL)
[15] = Example 22, buffer (2), 37° C., 2 h, EV 0 (free of extracellular vesicles)
[16] = Example 22, buffer (2), 37° C., 2 h, EV 0.111 a.u.
[17] = Example 22, buffer (2), 37° C., 2 h, EV 0.333 a.u.
[18] = Example 22, buffer (2), 37° C., 2 h, EV 1 a.u. (x1=10 μg/mL)

In the case of “[5-FAM]GRIGFLRTAK(TQ2)[OH] (5FAM-GRIGFLRTAK(TQ2)-OH) [Custom #1]”, the “Expected value λ” value [1] is reported as 0.000553, the Number of positives [1] is reported as 32 and the Positive ratio [1] is reported as 0.000553. The “Expected value λ” value [2] was 0.000535, the Number of positives [2] was 31 and the Positive ratio [2] was 0.000534. For the same substance, the “Expected value λ” value [3] was 0.00285, the Number of positives [3] was 165 and the Positive ratio [3] was 0.00285. The “Expected value λ” value [4] was 0.0115, the Number of positives [4] was 661 and the Positive ratio [4] was 0.0114. For the same substance, the “Expected value λ” value [5] was 0.137, the Number of positives [5] was 7,404 and the Positive ratio [5] was 0.128. For the same substance, the “Expected value λ” value [6] was 1.16, the Number of positives [6] was 39,601 and the Positive ratio [6] was 0.686. For the same substance, the “Expected value λ” value [7] was 1.16, the Number of positives [7] was 39,569 and the Positive ratio [7] was 0.685. For the same substance, the Number of positives (Example 20, 37° C., 5 h, ΔBG Present, EV 0.0001 a.u.) was −1, the “Expected value λ” value [8] was 0.0023 and the Number of positives [8] was 133. The Positive ratio [8] was 0.0023, the “Expected value λ” value [9] was 0.0109 and the Number of positives [9] was 629. For the same substance, the Positive ratio [9] was 0.0109, the “Expected value λ” value [10] was 0.136 and the Number of positives [10] was 7,372. For the same substance, the Positive ratio [10] was 0.128, the “λ at x1 in an approximation with BG correction” value (Example 20, 5 h) was 1.07 and the “λ at x1 in an approximation without BG correction” value (Example 20, 5 h) was 1.03. For the same substance, the Extracellular vesicle concentration (Example 20, with BG correction) was 2.1e+10 mL⁻¹, the “extracellular vesicles in which MMP14 activity can be detected, contained in 1 μL of the extracellular vesicles (50 μg of protein in 50 μL of PBS)” value (Example 20, with BG correction) was 2.1×10^9 and the Extracellular vesicle concentration (Example 20, without BG correction) was 2.1×10^9 /μg of protein. The Extracellular vesicle concentration (Example 20, without BG correction, reaction solution 10 μg of protein/mL, 50 fL) was 2.1e+10 mL⁻¹, the “expected value λ at x1 (power approximation)” value (Example 22, after 1 hour) was 0.661 and the “expected value λ at x1 (power approximation)” value (Example 22, after 2 hours) was 0.7145. For the same substance, the “Expected value λ” value [11] was 0.000725, the Number of positives [11] was 21 and the Positive ratio [11] was 0.000725. The “Expected value λ” value [12] was 0.0784, the Number of positives [12] was 2,186 and the Positive ratio [12] was 0.0754. The “Expected value λ” value [13] was 0.237, the Number of positives [13] was 6,117 and the Positive ratio [13] was 0.211. The “Expected value λ” value [14] was 0.65, the Number of positives [14] was 13,855 and the Positive ratio [14] was 0.478. The “Expected value λ” value [15] was 0.000794, the Number of positives [15] was 23 and the Positive ratio [15] was 0.000794. For the same substance, the “Expected value λ” value [16] was 0.0822, the Number of positives [16] was 2,287 and the Positive ratio [16] was 0.0789. The “Expected value λ” value [17] was 0.238, the Number of positives [17] was 6,143 and the Positive ratio [17] was 0.212. For the same substance, the “Expected value λ” value [18] was 0.719, the Number of positives [18] was 14,860 and the Positive ratio [18] was 0.513. The “extracellular vesicle concentration at which MMP14 activity was able to be detected in the microcompartments” value (Simoa Discs, buffer (4), reporter 5 μM, 37° C.) was no less than 10 ng/mL.
